± gives the standard deviation of the averaged measurements.
B1: library; a variant is named by its letters at N, in order (parent)
chain: ACATTTGTTGATACAACCATAAAATGATAATTACACCCATAAATTGATAATTATCACACCCANNNNNNNNNNNNNNCTCTGATCATAGTCAGACCAACATTGCTACGACCCGTATTCGCACCGACAC

How the values were obtained:
[1] = variants of: B1; experiment: relative integration efficiency (T-RL orientation) vs wild-type transposon end (log2 (normalized fold change)); transposon end mutated: right end (5 bp flank + 75 bp right end); higher = more efficient transposition; settings: with VchCAST RNA-guided transposition machinery (E. coli BL21(DE3) host, lacZ target)
Procedure, shortened: (§1)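 A T7-driven effector plasmid encoding a CRISPR array, tniQ-cas8-cas7-cas6 and tnsA-tnsB-tnsC was co-transformed into E. coli BL21(DE3) together with a pUC57 mini-transposon donor holding barcoded pools of 1549 left-end or 1849 right-end variants. Transformants were plated with 0.1 mM IPTG at 37°C for 18 h. Illumina sequencing of PCR-amplified input plasmids and genomic integration junctions gave barcode abundances, and relative integration efficiency is their output/input fold change, normalised to reference barcodes and log-transformed.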

[2] = variants of: B1; experiment: relative integration efficiency (T-LR orientation) vs wild-type transposon end (log2 (normalized fold change)); transposon end mutated: right end (5 bp flank + 75 bp right end); higher = more efficient transposition; settings: with VchCAST RNA-guided transposition machinery (E. coli BL21(DE3) host, lacZ target)
Procedure, shortened: as §1

Variant	relative integration efficiency (log2) [1]	relative integration efficiency (log2) [2]
ACATTTGTTGATACAACCATAAAATGATAATCACACCCATAAATTGATAATTATCACACCCATAAATTGATATTGCCTCTGATCATAGTCAGACCAACATTGCTACGACCCGTATTCGCACCGACAC [TAAATTGATATTGC T32C]	-0.438 ± 0.11	-0.169 ± 0.21
ACATTTGTTGATACAACCATAAAATGATAATGACACCCATAAATTGATAATTATCACACCCATAAATTGATATTGCCTCTGATCATAGTCAGACCAACATTGCTACGACCCGTATTCGCACCGACAC [TAAATTGATATTGC T32G]	-1.26 ± 0.063	0.729 ± 0.26
ACATTTGTTGATACAACCATAAAATGATAATAACACCCATAAATTGATAATTATCACACCCATAAATTGATATTGCCTCTGATCATAGTCAGACCAACATTGCTACGACCCGTATTCGCACCGACAC [TAAATTGATATTGC T32A]	0.933 ± 0.11	0.96 ± 0.14
ACATTTGTTGATACAACCATAAAATGATAATTACACCCATAAAATGATAATTATCACACCCATAAATTGATATTGCCTCTGATCATAGTCAGACCAACATTGCTACGACCCGTATTCGCACCGACAC [TAAATTGATATTGC T44A]	0.0685 ± 0.021	-0.0417 ± 0.00085
ACATTTGTTGATACAACCATAAAATGATAATTACACCCATAAAGTGATAATTATCACACCCATAAATTGATATTGCCTCTGATCATAGTCAGACCAACATTGCTACGACCCGTATTCGCACCGACAC [TAAATTGATATTGC T44G]	-0.00517 ± 0.11	-0.385 ± 0.26
ACATTTGTTGATACAACCATAAAATGATAATTACACCCATAAACTGATAATTATCACACCCATAAATTGATATTGCCTCTGATCATAGTCAGACCAACATTGCTACGACCCGTATTCGCACCGACAC [TAAATTGATATTGC T44C]	-0.0775 ± 0.082	-0.274 ± 0.09
ACATTTGTTGATACAACCATAAAATGAAAATTACACCCATAAATTGATAATTATCACACCCATAAATTGATATTGCCTCTGATCATAGTCAGACCAACATTGCTACGACCCGTATTCGCACCGACAC [TAAATTGATATTGC T28A]	-0.215 ± 0.21	0.152 ± 0.12
ACATTTGTTGATACAACCATAAAATGAGAATTACACCCATAAATTGATAATTATCACACCCATAAATTGATATTGCCTCTGATCATAGTCAGACCAACATTGCTACGACCCGTATTCGCACCGACAC [TAAATTGATATTGC T28G]	-0.476 ± 0.036	0.189 ± 0.11
ACATTTGTTGATACAACCATAAAATGACAATTACACCCATAAATTGATAATTATCACACCCATAAATTGATATTGCCTCTGATCATAGTCAGACCAACATTGCTACGACCCGTATTCGCACCGACAC [TAAATTGATATTGC T28C]	-0.278 ± 0.096	-0.203 ± 0.2
ACATTTGTTGATACAACCATAAAATGATAATTACACCCATAAATCGATAATTATCACACCCATAAATTGATATTGCCTCTGATCATAGTCAGACCAACATTGCTACGACCCGTATTCGCACCGACAC [TAAATTGATATTGC T45C]	-0.0459 ± 0.091	-0.285 ± 0.21
ACATTTGTTGATACAACCATAAAATGATAATTACACCCATAAATGGATAATTATCACACCCATAAATTGATATTGCCTCTGATCATAGTCAGACCAACATTGCTACGACCCGTATTCGCACCGACAC [TAAATTGATATTGC T45G]	-0.479 ± 0.082	-0.522 ± 0.1
ACATTTGTTGATACAACCATAAAATGATAATTACACCCATAAATAGATAATTATCACACCCATAAATTGATATTGCCTCTGATCATAGTCAGACCAACATTGCTACGACCCGTATTCGCACCGACAC [TAAATTGATATTGC T45A]	-0.307 ± 0.056	-0.351 ± 0.41
ACATTTGTTGATACAACCATAAAACGATAATTACACCCATAAATTGATAATTATCACACCCATAAATTGATATTGCCTCTGATCATAGTCAGACCAACATTGCTACGACCCGTATTCGCACCGACAC [TAAATTGATATTGC T25C]	-0.146 ± 0.0084	-0.488 ± 0.0056
ACATTTGTTGATACAACCATAAAAGGATAATTACACCCATAAATTGATAATTATCACACCCATAAATTGATATTGCCTCTGATCATAGTCAGACCAACATTGCTACGACCCGTATTCGCACCGACAC [TAAATTGATATTGC T25G]	-0.25 ± 0.041	-0.0581 ± 0.34
ACATTTGTTGATACAACCATAAAATGATAACTACACCCATAAATTGATAATTATCACACCCATAAATTGATATTGCCTCTGATCATAGTCAGACCAACATTGCTACGACCCGTATTCGCACCGACAC [TAAATTGATATTGC T31C]	-0.0667 ± 0.0077	0.344 ± 0.35
ACATTTGTTGATACAACCATAAAATGATAAGTACACCCATAAATTGATAATTATCACACCCATAAATTGATATTGCCTCTGATCATAGTCAGACCAACATTGCTACGACCCGTATTCGCACCGACAC [TAAATTGATATTGC T31G]	-0.564 ± 0.13	0.2 ± 0.23
ACATTTGTTGATACAACCATAAAATGATAAATACACCCATAAATTGATAATTATCACACCCATAAATTGATATTGCCTCTGATCATAGTCAGACCAACATTGCTACGACCCGTATTCGCACCGACAC [TAAATTGATATTGC T31A]	-0.436 ± 0.1	0.0674 ± 0.1
ACATTTGTTGATACAACCATAAAATGATAATTACACCCAGAAATTGATAATTATCACACCCATAAATTGATATTGCCTCTGATCATAGTCAGACCAACATTGCTACGACCCGTATTCGCACCGACAC [TAAATTGATATTGC T40G]	-0.896 ± 0.09	-1.24 ± 0.71
ACATTTGTTGATACAACCATAAAATGATAATTACACCCACAAATTGATAATTATCACACCCATAAATTGATATTGCCTCTGATCATAGTCAGACCAACATTGCTACGACCCGTATTCGCACCGACAC [TAAATTGATATTGC T40C]	-0.609 ± 0.017	-0.859 ± 0.091
ACATTTGTTGATACAACCATAAAATGATAATTACACCCAAAAATTGATAATTATCACACCCATAAATTGATATTGCCTCTGATCATAGTCAGACCAACATTGCTACGACCCGTATTCGCACCGACAC [TAAATTGATATTGC T40A]	-0.0544 ± 0.14	-0.355 ± 0.17
ACATTTGTTGATACAACCATAAAATGATAATTACACCCATAAATTGAGAATTATCACACCCATAAATTGATATTGCCTCTGATCATAGTCAGACCAACATTGCTACGACCCGTATTCGCACCGACAC [TAAATTGATATTGC T48G]	-0.12 ± 0.078	-0.379 ± 0.13
ACATTTGTTGATACAACCATAAAATGATAATTACACCCATAAATTGAAAATTATCACACCCATAAATTGATATTGCCTCTGATCATAGTCAGACCAACATTGCTACGACCCGTATTCGCACCGACAC [TAAATTGATATTGC T48A]	0.196 ± 0.2	0.629 ± 0.21
ACATTTGTTGATACAACCATAAAATGATAATTACACCCATAAATTGACAATTATCACACCCATAAATTGATATTGCCTCTGATCATAGTCAGACCAACATTGCTACGACCCGTATTCGCACCGACAC [TAAATTGATATTGC T48C]	-0.4021 ± 0.003	-0.401 ± 0.25
